According to article PMC12703665, “A Trifunctional, Rare-Earth Theranostic Chelator Platform to Enable Diagnostic Nuclear Imaging, Surgical Resection, and Radiotherapy” (Journal of the American Chemical Society, 2025):

How the values were obtained:
in vivo = conditions: male, athymic nude, mouse, intravenous, total radioactivity, 2 h post injection, n = 4
Method: (§1) For in vivo evaluation, athymic nude mice-bearing bilateral PC-3 PIP/flu (PSMA^+/PSMA^–) tumor xenografts were used (Figure ).
(§2) 5.1.1 Urine metabolite analysis
(§3) Metabolite analysis was performed by analyzing aliquots of 100 µL of mouse urine collected during biodistribution studies. If the collected urine volume was less than 100 µL, 1X DPBS was added in order to bring it up to a final volume of 100 µL. In cases where the radioactivity present in urine decayed to levels too low for detection by HPLC, fractions eluted from the radioHPLC were collected every 30 seconds, and the amount of radioactivity was estimated via gamma counting (Hidex Automatic Gamma Counter). The chromatogram was then reconstructed by plotting the recorded counts per minute recorded for each fraction […]
(§4) 5.2 In vitro optical imaging
(§5) Tumor tissues were harvested from male, nude, athymic mice bearing xenografts from PC3-PIP (PSMA+) and PC3-flu (PSMA-) were fixed for (24) hours in 10% neutral buffered formalin, processed and embedded into paraffin blocks. Tissues were sectioned at 5µm, dried and then deparaffinized with a 25-minute oven bake at 60°C, followed by a series of xylene and alcohol washes
(§6) Antigens were prepared in PerkinElmer’s 1X Antigen Retrieval pH 9.0 (AR900250ML) for 8 minutes in the microwave. Tissue sections were blocked with 1X Antibody Diluent/Block buffer (Akoya).
(§7) Ab-PSMA, natEu-pepa-pic2-C-Hex-KuE and DAPI staining.
(§8) Tissues were stained with Ab-PSMA (Ventana 760-6076; 11.75 µg/mL; 100uL per slide) for 30 minutes at room temperature. Slides were washed with TBS-T and secondary goat anti-rabbit was applied for 10 minutes at room temperature. Slides were washed with TBS-T and Akoya’s Opal dye 520 was applied for 10 minutes at room temperature. Antigen retrieval and blocking steps were performed again.
(§9) An aqueous solution of natEu-pepa-pic2-C-Hex-KuE (10 µM) was diluted at 1:1 with 1X Diluent/Block (Akoya) and 100 µL were applied per slide for 2 hours at room temperature. For DAPI staining, DAPI working solution (Akoya) was applied for 10 minutes at room temperature before mounting with ProLong™ Gold Antifade Mountant. Slides were imaged by Nuance Multispectral Scope at 20x objective.
(§10) 5.3 In vivo biodistribution in PSMA +/- mice models, PET-CT and SPECT imaging.
(§11) Male, nude, athymic mice were purchased from Jackson Laboratory. Ten days preceding the imaging study, mice were implanted with 1 × 10^6 cells (PC-3 PIP on the right, PC-3 flu on the left shoulder) in 100 µL of a 1:2 mixture of DPBS 1X/matrigel matrix subcutaneously.
(§12) A solution of 100 µL of labeled radiotracer was administered via tail vein injection into 8–10-week-old male nude mice (n = 4 per cohort) bearing PSMA+/- tumors.
(§13) For biodistribution studies, mice were euthanized at 2 hours (n=4) post-injection of the radio tracer. Organs were extracted, intestinal content removed, and activity assessed via a gamma counter. Biodistribution analysis values are represented as percentage of injected dose per gram of organ weight (% ID/g).

[1] = tested on: PC-3 PIP/flu (PSMA+/PSMA–) tumor xenografts; conditions: biodistribution 2 h p.i. and SPECT 0.5-25 h
Method: Following radiochemical labeling and formulation in PBS, [^177Lu]­Lu-pepa-pic2-C-hex-KuE and [^161Tb]­Tb-pepa-pic2-C-hex-KuE were evaluated by single point biodistribution (2 h p.i.) and serial SPECT imaging at 0.5, 1, 1.5, 4, and 25 h in direct comparison with the clinically validated radiopharmaceutical [^177Lu]­Lu-PSMA-617 as well as [^161Tb]­Tb-PSMA-617 (Figure d–e, Supporting Information, Figures S52–S55, and Table S2).
Representative PET-CT (Y-86) or SPECT (Lu-177, Tb-161) images were acquired at different time points starting as early as 0.5 h and up to 25-hours post administration of radiotracer. Mice were initially anesthetized with isoflurane gas at 4% isoflurane in oxygen and maintained during scans at 2.0%. PET-CT and SPECT images were normalized to units of percentage of injected dose per cubic centimeter and presented as maximum intensity projected scan (MIPS) images.
PET-CT scans were acquired in a Siemens Inveon Hybrid MicroPET/CT Scanner (Siemens Medical Solutions USA, Inc., Knoxville, TN), and image processing and region of interest (ROI) analysis conducted using the Inveon Research Workstation analysis software. ROI analysis of the PET/CT images was used to estimate tracer uptake in major organs or tissues, and quantitative results are given as percentage of injected dose per cubic centimeter (%ID/cc). […]

[2] = tested on: PC-3 PIP/flu (PSMA+/PSMA–) tumor xenografts; assay: in vivo; conditions: 2 h post injection, n = 4, listed as [161Tb]TbIII-pepa-pic2-C-Hex-KuE
Method: as §1, §2, §3, §4, §5, §6, §7, §8, §9, §10, §11, §12, §13

[3] = 277 nm; ref 11 (SI); cited from earlier work

COCCOCCOCCOc1ccc(C#Cc2cc(CN3CCN(Cc4cccc(C(=O)O)n4)CCN(Cc4cc(SC[C@H](N)C(=O)NCCCCCC(=O)NCCCC[C@H](NC(=O)N[C@@H](CCC(=O)O)C(=O)O)C(=O)O)cc(C(=O)O)n4)CC3)nc(C(=O)O)c2)cc1 [[177Lu]Lu-pepa-pic2-C-Hex-KuE, metal not drawn]
tissue uptake at 2 h (in vivo; PSMA+ tumor, Tumor +, PSMA+ tumor): 4.57 ± 0.9 %ID/g | tissue uptake at 2 h (in vivo; blood): 0.3 ± 0.1 %ID/g | tissue uptake at 2 h (in vivo; bone): 0.25 ± 0.02 %ID/g | tissue uptake at 2 h (in vivo; heart): 0.19 ± 0.07 %ID/g | tissue uptake at 2 h (in vivo; kidney): 25.9 ± 8.51 %ID/g | tissue uptake at 2 h (in vivo; large intestine): 0.49 ± 0.27 %ID/g | tissue uptake at 2 h (in vivo; liver): 0.5 ± 0.05 %ID/g | tissue uptake at 2 h (in vivo; lungs): 0.47 ± 0.26 %ID/g | tissue uptake at 2 h (in vivo; muscle): 0.11 ± 0.05 %ID/g | tissue uptake at 2 h (in vivo; small intestine): 0.33 ± 0.27 %ID/g | tissue uptake at 2 h (in vivo; spleen): 0.53 ± 0.24 %ID/g | uptake of activity in the PSMA-expressing tumor [1]: persistent, statistically significant uptake

COCCOCCOCCOc1ccc(C#Cc2cc(CN3CCN(Cc4cccc(C(=O)O)n4)CCN(Cc4cc(SC[C@H](N)C(=O)NCCCCCC(=O)NCCCC[C@H](NC(=O)N[C@@H](CCC(=O)O)C(=O)O)C(=O)O)cc(C(=O)O)n4)CC3)nc(C(=O)O)c2)cc1 [[161Tb]Tb-pepa-pic2-C-Hex-KuE, metal not drawn]
tissue uptake at 2 h (in vivo; PSMA- tumor, Tumor -): 0.7 ± 1.59 %ID/g | Blood [2]: 0.45 ± 0.06 % ID/g | Bone [2]: 0.24 ± 0.03 % ID/g | Heart [2]: 0.21 ± 0.03 % ID/g | Kidney [2]: 17.89 ± 2.70 % ID/g | Large Intestine [2]: 0.98 ± 1.44 % ID/g | Liver [2]: 0.64 ± 0.09 % ID/g | Lungs [2]: 0.50 ± 0.07 % ID/g | Muscle [2]: 0.11 ± 0.03 % ID/g | Small Intestine [2]: 0.33 ± 0.37 % ID/g | Spleen [2]: 0.50 ± 0.09 % ID/g | Tumor + ([2]; PSMA+ tumor): 7.33 ± 1.59 % ID/g

PSMA-617
ε277 [3]: 4268 M⁻¹ cm⁻¹
